Experimental data: article PMC10107836 (Chembiochem, 2022)
Values joined by “and” are separate entries in the source; they are usually repeats but may differ in a detail not shown here. Equal entries are not always repeated.

Target: extraviral domain of SARS-CoV-2 spike protein (aa 1-1213) (SARS-CoV-2) (UniProt P0DTC2)
Assay: SPR

Substance: pineapple-derived jacalin-related lectin AcmJRL (natural protein)
- Kd: 3.3 µM and 11.1 µM
- koff: 0.0034 s⁻¹
- kon: 1060 M⁻¹ s⁻¹
